Assay results taken from PMC3978073, “Flexibility of the Linker between the Domains of DNA Methyltransferase SsoII Revealed by Small-Angle X-Ray Scattering: Implications for Transcription Regulation in SsoII Restriction–Modification Syste”.

Biological target: T1, M.SsoII (C5-DNA methyltransferase SsoII) (Shigella sonnei, UniProt P34879 1-379)
T1 sequence: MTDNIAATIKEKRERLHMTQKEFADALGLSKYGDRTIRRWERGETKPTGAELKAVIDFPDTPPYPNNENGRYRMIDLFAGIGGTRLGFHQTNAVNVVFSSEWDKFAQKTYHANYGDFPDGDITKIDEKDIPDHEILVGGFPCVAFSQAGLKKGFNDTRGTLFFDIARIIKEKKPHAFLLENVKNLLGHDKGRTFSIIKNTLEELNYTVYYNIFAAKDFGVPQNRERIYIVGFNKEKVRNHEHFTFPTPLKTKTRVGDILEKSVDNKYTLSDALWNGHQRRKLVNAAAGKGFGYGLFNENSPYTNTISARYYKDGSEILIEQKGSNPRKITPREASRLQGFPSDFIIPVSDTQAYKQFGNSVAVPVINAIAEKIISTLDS
Assay: EMSA (native PAGE, EtBr and Coomassie stain); AdoHcy; M.SsoII:AdoHcy:DNA 1:2:1; Complex formation: 18 mM Tris-HCl, 136 mM NaCl, 3.5 mM beta-mercaptoethanol, 10% (w/v) glycerol, pH 8.0, with AdoHcy; temperature not stated; 7% native PAGE
Details: protein: recombinant; (HisTrap purified; tag not described); blunt

B1: 15met (dsDNA)
DNA 1: AGAGCCAGGAACCGA
DNA 2: TCGGTTCCTGGCTCT
binding result: binds
